Source: IntAct's records for PubMed 21317894

B1: Complement factor H (Homo sapiens), P08603 (parent)
chain: MRLLAKIICLMLWAICVAEDCNELPPRRNTEILTGSWSDQTYPEGTQAIYKCRPGYRSLGNVIMVCRKGEWVALNPLRKCQKRPCGHPGDTPFGTFTLTGGNVFEYGVKAVYTCNEGYQLLGEINYRECDTDGWTNDIPICEVVKCLPVTAPENGKIVSSAMEPDREYHFGQAVRFVCNSGYKIEGDEEMHCSDDGFWSKEKPKCVEISCKSPDVINGSPISQKIIYKENERFQYKCNMGYEYSERGDAVCTESGWRPLPSCEEKSCDNPYIPNGDYSPLRIKHRTGDEITYQCRNGFYPATRGNTAKCTSTGWIPAPRCTLKPCDYPDIKHGGLYHENMRRPYFPVAVGKYYSYYCDEHFETPSGSYWDHIHCTQDGWSPAVPCLRKCYFPYLENGYNQNYGRKFVQGKSIDVACHPGYALPKAQTTVTCMENGWSPTPRCIRVKTCSKSSIDIENGFISESQYTYALKEKAKYQCKLGYVTADGETSGSITCGKDGWSAQPTCIKSCDIPVFMNARTKNDFTWFKLNDTLDYECHDGYESNTGSTTGSIVCGYNGWSDLPICYERECELPKIDVHLVPDRKKDQYKVGEVLKFSCKPGFTIVGPNSVQCYHFGLSPDLPICKEQVQSCGPPPELLNGNVKEKTKEEYGHSEVVEYYCNPRFLMKGPNKIQCVDGEWTTLPVCIVEESTCGDIPELEHGWAQLSSPPYYYGDSVEFNCSESFTMIGHRSITCIHGVWTQLPQCVAIDKLKKCKSSNLIILEEHLKNKKEFDHNSNIRYRCRGKEGWIHTVCINGRWDPEVNCSMAQIQLCPPPPQIPNSHNMTTTLNYRDGEKVSVLCQENYLIQEGEEITCKDGRWQSIPLCVEKIPCSQPPQIEHGTINSSRSSQESYAHGTKLSYTCEGGFRISEENETTCYMGKWSSPPQCEGLPCKSPPEISHGVVAHMSDSYQYGEEVTYKCFEGFGIDGPAIAKCLGEKWSHPPSCIKTDCLSLPSFENAIPMGEKKDVYKAGEQVTYTCATYYKMDGASNVTCINSRWTGRPTCRDTSCVNPPTVQNAYIVSRQMSKYPSGERVRYQCRSPYEMFGDEEVMCLNGNWTEPPQCKDSTGKCGPPPPIDNGDITSFPLSVYAPASSVEYQCQNLYQLEGNKRITCRNGQWSEPPKCLHPCVISREIMENYNIALRWTAKQKLYSRTGESVEFVCKRGYRLSSRSHTLRTTCWDGKLEYPTCAKR

Variants of: B1
Conditions: with co3_human C3, P01024
Chain of co3_human C3, P01024 (P01024 whole entry): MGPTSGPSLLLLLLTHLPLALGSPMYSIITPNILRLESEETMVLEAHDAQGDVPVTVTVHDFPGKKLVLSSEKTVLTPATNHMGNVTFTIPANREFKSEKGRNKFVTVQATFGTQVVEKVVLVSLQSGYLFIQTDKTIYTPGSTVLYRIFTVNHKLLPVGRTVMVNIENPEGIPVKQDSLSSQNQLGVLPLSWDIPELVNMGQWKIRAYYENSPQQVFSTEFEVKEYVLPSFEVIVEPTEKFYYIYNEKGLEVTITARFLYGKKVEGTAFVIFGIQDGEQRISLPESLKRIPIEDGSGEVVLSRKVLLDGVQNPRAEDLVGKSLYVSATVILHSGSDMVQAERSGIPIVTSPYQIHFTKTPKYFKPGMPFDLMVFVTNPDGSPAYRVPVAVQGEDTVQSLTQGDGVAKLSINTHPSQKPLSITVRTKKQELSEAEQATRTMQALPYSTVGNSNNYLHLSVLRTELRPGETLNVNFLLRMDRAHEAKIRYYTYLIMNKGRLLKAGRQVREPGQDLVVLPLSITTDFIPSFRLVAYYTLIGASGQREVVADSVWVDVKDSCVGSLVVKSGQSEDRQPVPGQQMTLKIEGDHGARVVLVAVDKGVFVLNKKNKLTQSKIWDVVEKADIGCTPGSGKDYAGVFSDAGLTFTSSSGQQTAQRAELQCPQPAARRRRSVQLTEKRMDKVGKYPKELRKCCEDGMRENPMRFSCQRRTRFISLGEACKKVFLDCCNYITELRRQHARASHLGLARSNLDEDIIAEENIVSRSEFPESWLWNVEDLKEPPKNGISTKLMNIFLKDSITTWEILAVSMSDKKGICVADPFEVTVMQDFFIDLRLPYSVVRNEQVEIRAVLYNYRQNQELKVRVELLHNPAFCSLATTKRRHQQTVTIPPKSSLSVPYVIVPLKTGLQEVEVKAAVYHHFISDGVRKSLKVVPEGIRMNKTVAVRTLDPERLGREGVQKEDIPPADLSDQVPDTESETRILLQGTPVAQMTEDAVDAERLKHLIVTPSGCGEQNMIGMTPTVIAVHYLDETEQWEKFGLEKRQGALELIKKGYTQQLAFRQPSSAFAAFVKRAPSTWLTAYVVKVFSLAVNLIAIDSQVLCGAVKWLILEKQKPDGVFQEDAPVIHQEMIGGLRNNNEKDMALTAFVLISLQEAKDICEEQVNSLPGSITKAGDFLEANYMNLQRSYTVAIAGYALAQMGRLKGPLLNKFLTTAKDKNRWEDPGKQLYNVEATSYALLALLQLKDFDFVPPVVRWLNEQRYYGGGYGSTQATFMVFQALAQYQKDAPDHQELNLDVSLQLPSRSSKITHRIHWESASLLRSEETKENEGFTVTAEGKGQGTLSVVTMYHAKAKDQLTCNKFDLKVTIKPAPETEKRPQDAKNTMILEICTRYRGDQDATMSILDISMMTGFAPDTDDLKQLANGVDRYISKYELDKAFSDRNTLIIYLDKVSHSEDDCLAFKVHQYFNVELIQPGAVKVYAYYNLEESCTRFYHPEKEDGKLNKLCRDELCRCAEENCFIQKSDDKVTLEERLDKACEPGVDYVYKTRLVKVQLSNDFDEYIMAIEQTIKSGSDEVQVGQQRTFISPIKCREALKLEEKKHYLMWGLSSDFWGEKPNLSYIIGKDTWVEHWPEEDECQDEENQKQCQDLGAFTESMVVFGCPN

| Variant | effect of a mutation on the interaction |
| --- | --- |
| R1203S | decreasing interaction |
| D1119G | disrupting interaction |
| R1215Q | decreasing interaction |
| R1182S | decreasing interaction |
